{"source": "patent US20070131547A1", "test_in_all_cases": "cell-based or functional assay", "key": {"[1]": {"molecular_target": "ppuDp-Jun (diaphorase derived from Pseudomonas putida, Jun association site fused at the C-terminal side) (Pseudomonas putida)"}, "[2]": {"molecular_target": "goxDp-Dzip2 (diaphorase derived from Gluconobacter oxydans, Dzip2 association site fused at the C-terminal side) (Gluconobacter oxydans)"}, "[3]": {"molecular_target": "T1, ecoISO-Dzip2 (xylose isomerase derived from Escherichia coli, Dzip2 association site fused at the C-terminal side) (Escherichia coli) (UniProt B1X8I1)", "T1 sequence": "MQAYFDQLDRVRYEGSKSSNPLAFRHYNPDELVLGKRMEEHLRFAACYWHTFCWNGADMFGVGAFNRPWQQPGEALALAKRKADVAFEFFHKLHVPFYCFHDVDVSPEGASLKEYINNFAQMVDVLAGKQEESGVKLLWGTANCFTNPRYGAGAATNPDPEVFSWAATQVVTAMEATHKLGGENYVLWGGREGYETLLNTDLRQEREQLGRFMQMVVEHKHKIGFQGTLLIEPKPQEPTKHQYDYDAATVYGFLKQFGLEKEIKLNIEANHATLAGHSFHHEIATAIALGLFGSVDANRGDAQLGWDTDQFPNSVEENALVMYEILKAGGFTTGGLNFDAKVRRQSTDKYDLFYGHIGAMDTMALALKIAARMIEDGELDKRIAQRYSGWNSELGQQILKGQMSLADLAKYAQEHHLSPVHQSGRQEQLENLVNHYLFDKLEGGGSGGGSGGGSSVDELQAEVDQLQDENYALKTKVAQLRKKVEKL"}, "[4]": {"molecular_target": "T2, goxALDH-Dzip2 (aldehyde dehydrogenase derived from Gluconobacter oxydans, Dzip2 association site fused at the C-terminal side) (Gluconobacter oxydans)", "T2 sequence": "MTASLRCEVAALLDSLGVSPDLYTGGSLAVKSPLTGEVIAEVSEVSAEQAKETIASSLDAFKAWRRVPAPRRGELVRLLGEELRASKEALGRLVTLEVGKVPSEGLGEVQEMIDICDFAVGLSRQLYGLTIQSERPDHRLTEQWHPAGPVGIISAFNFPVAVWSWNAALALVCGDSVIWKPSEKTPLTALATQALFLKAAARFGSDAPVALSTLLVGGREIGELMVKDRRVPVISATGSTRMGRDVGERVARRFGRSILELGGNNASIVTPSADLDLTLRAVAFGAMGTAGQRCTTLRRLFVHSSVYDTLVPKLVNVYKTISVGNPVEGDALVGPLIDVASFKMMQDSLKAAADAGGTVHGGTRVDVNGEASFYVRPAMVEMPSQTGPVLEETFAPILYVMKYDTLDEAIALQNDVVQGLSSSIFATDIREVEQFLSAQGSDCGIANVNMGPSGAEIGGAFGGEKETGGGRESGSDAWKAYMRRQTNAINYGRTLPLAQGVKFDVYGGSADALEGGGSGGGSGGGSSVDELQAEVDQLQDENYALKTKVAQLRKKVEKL"}, "[5]": {"molecular_target": "phoDp-Jun (diaphorase derived from Pyrococcus horikoshii, Jun association site fused at the C-terminal side) (Pyrococcus horikoshii)"}}, "data": [{"binder": "His-sceADH-Fos (alcohol dehydrogenase derived from Saccharomyces cerevisiae, His tag, Fos association site fused at the C-terminal side) (enzyme) MGSSHHHHHHSQDPPSQVIPEKQKAIVFYETDGKLEYKDVTVPEPKPNEILVHVKYSGVCHSDLHAWHGDWPFQLKFPLIGGHEGAGVVVKLGSNVKGWKVGDFAGIKWLNGTCMSCEYCEVGNESQCPYLDGTGFTHDGTFQEYATADAVQAAHIPPNVNLAEVAPILCAGITVYKALKRANVIPGQWVTISGACGGLGSLAIQYALAMGYRVIGIDGGNAKRKLFEQLGGEIFIDFTEEKDIVGAIIKATNGGSHGVINVSVSEAAIEASTRYCRPNGTVVLVGMPAHAYCNSDVFNQVVKSISIVGSCVGNRADTREALDFFARGLIKSPIHLAGLSDVPEIFAKMEKGEIVGRYVVETSKKLGGGSGGGSLTDTLQAETDQLEDKKSALQTEIANLLKEKEKLEFILAAY", "values": [{"measurement": "maximum electric power (alcohol fuel cell)", "setting": "[1]", "result": 80, "unit": "µW/cm^2"}, {"measurement": "shortcircuit current density (alcohol fuel cell)", "setting": "[1]", "result": 821, "unit": "µA/cm^2"}]}, {"binder": "His-busGDH-Fos (glucose dehydrogenase derived from Bacillus subtilis, His tag, Fos association site fused at the C-terminal side) (enzyme) MGSSHHHHHHSQDPYPDLKGKVVAITGAASGLGKAMAIRFGKEQAKVVINYYSNKQDPNEVKEEVIKAGGEAVVVQGDVTKEEDVKNIVQTAIKEFGTLDIMINNAGLENPVPSHEMPLKDWDKVIGTNLTGAFLGSREAIKYFVENDIKGNVINMSSVHEVIPWPLFVHYAASKGGIKLMTETLALEYAPKGIRVNNIGPGAINTPINAEKFADPKQKADVESMIPMGYIGEPEEIAAVAAWLASKEASYVTGITLFADGGMTQYPSFQAGRGKLGGGSGGGSLTDTLQAETDQLEDKKSALQTEIANLLKEKEKLEFILAAY", "values": [{"measurement": "maximum electric power (glucose fuel cell)", "setting": "[1]", "result": 101, "unit": "µW/cm^2"}, {"measurement": "shortcircuit current density (glucose fuel cell)", "setting": "[1]", "result": 988, "unit": "µA/cm^2"}]}, {"binder": "His-lplLDH-Dzip1 (lactic acid dehydrogenase derived from Lactobacillus plantarum, His tag, Dzip1 association site fused at the C-terminal side) (enzyme) MGSSHHHHHHSQDPSSMPNHQKVVLVGDGAVGSSYAFAMAQQGIAEEFVIVDVVKDRTKGDALDLEDAQAFTAPKKIYSGEYSDCKDADLVVITAGAPQKPGESRLDLVNKNLNILSSIVKPVVDSGFDGIFLVAANPVDILTYATWKFSGFPKDRVIGSGTSLDSSRLRVALGKQFNVDPRSVDAYIMGEHGDSEFAAYSTATIGTRPVRDVAKEQGVSDEDLAKLEDGVRNKAYDIINLKGATFYGIGTALMRISKAILRDENAVLPVGAYMDGQYGLNDIYIGTPAVIGGTGLKQIIESPLSADELKKMQDSAATLKKVLNDGLAELENKKLGGGSGGGSGGGSTVAQLEEKVKTLRAQNYELKSRVQRLREQVAQLA", "values": [{"measurement": "maximum electric power (lactic acid fuel cell)", "setting": "[2]", "result": 121, "unit": "µW/cm^2"}, {"measurement": "shortcircuit current density (lactic acid fuel cell)", "setting": "[2]", "result": 1330, "unit": "µA/cm^2"}]}, {"binder": "His-busGDH-Dzip1 (glucose dehydrogenase derived from Bacillus subtilis, His tag, Dzip1 association site fused at the C-terminal side) (enzyme) MGSSHHHHHHSQDPYPDLKGKVVAITGAASGLGKAMAIRFGKEQAKVVINYYSNKQDPNEVKEEVIKAGGEAVVVQGDVTKEEDVKNIVQTAIKEFGTLDIMINNAGLENPVPSHEMPLKDWDKVIGTNLTGAFLGSREAIKYFVENDIKGNVINMSSVHEVIPWPLFVHYAASKGGIKLMTETLALEYAPKGIRVNNIGPGAINTPINAEKFADPKQKADVESMIPMGYIGEPEEIAAVAAWLASKEASYVTGITLFADGGMTQYPSFQAGRGKLGGGSGGGSGGGSTVAQLEEKVKTLRAQNYELKSRVQRLREQVAQLA", "values": [{"measurement": "maximum electric power (fructose fuel cell)", "setting": "[3]", "result": 101, "unit": "µW/cm^2"}, {"measurement": "shortcircuit current density (fructose fuel cell)", "setting": "[3]", "result": 1110, "unit": "µA/cm^2"}]}, {"binder": "His-sceADH-Dzip1 (alcohol dehydrogenase derived from Saccharomyces cerevisiae, His tag, Dzip1 association site fused at the C-terminal side) (enzyme) MGSSHHHHHHSQDPPSQVIPEKQKAIVFYETDGKLEYKDVTVPEPKPNEILVHVKYSGVCHSDLHAWHGDWPFQLKFPLIGGHEGAGVVVKLGSNVKGWKVGDFAGIKWLNGTCMSCEYCEVGNESQCPYLDGTGFTHDGTFQEYATADAVQAAHIPPNVNLAEVAPILCAGITVYKALKRANVIPGQWVTISGACGGLGSLAIQYALAMGYRVIGIDGGNAKRKLFEQLGGEIFIDFTEEKDIVGAIIKATNGGSHGVINVSVSEAAIEASTRYCRPNGTVVLVGMPAHAYCNSDVFNQVVKSISIVGSCVGNRADTREALDFFARGLIKSPIHLAGLSDVPEIFAKMEKGEIVGRYVVETSKKLGGGSGGGSGGGSTVAQLEEKVKTLRAQNYELKSRVQRLREQVAQLA", "values": [{"measurement": "maximum electric power (alcohol fuel cell)", "setting": "[4]", "result": 173, "unit": "µW/cm^2"}, {"measurement": "shortcircuit current density (alcohol fuel cell)", "setting": "[4]", "result": 1620, "unit": "µA/cm^2"}]}, {"binder": "His-ppuMDH-Dzip1 (malic acid dehydrogenase derived from Pseudomonas putida, His tag, Dzip1 association site fused at the C-terminal side) (enzyme) MGSSHHHHHHSQDPSDLKTAALEYHAQPRPGKLSVELSKPTATARDLALAYSPGVAEPVREIGRDPELAYKYTGKGNLVAVISDGTAILGLGDLGPLASKPVMEGKGVLFKRFAGIDVFDIEVESESPQAFIDTVRRISITFGGINLEDIKAPECFEIERTLIEQCDIPVFHDDQHGTAIVTAAGMINALEIAGKKLEEAKIVCLGAGAAAISCMKLLVSMGAKVENIFMIDRSGVIHAGRDDLNQYKAQFAHATDKRTLADALDGADVFVGLSGPNLLSPEGLKSMAANPIVFACSNPDPEISPELAHATRNDVIMATGRSDYPNQVNNVLGFPFIFRGALDVRAKRINEEMKIAAAIALKDLAKLPVPKEVCEAYGVEGLEFGREYIIPKPLDARLITVVSDAVAKAAIESGVATLPYPKHYPLTSVDEVFNGKLGGGSGGGSGGGSTVAQLEEKVKTLRAQNYELKSRVQRLREQVAQLA", "values": [{"measurement": "maximum electric power (malic acid fuel cell)", "setting": "[2]", "result": 99, "unit": "µW/cm^2"}, {"measurement": "shortcircuit current density (malic acid fuel cell)", "setting": "[2]", "result": 1030, "unit": "µA/cm^2"}]}, {"binder": "His-pfuGDH-Fos (glucose dehydrogenase derived from Pyrococcus furiosus, His tag, Fos association site fused at the C-terminal side) (enzyme) MGSSHHHHHHSQDPNILITASSRGIGFNVAKELLKKGHRVVISSSNEKNLEKALEELKEYEKVYPIKADLSKKEEIKNMVEKAWEILGKIDVLVWNAPNVKCEPCMIHELDYEDWVEGALLHIIAPGYLTTLLLNKWLKNNTRGIIIYLSSASVLEPMPPLLLADSTRAGLIQLAKGISRAYGKRGIRAYTVLLGSFDTPGARENLRRLAEKRGVDPEELWKKEVIERTPLQRTGKWEELGELIEFLLSDNAEYMLGSTILFDGAMTRSVLLKLGGGSGGGSLTDTLQAETDQLEDKKSALQTEIANLLKEKEKLEFILAAY", "values": [{"measurement": "maximum electric power (glucose fuel cell)", "setting": "[5]", "result": 126, "unit": "µW/cm^2"}, {"measurement": "shortcircuit current density (glucose fuel cell)", "setting": "[5]", "result": 1320, "unit": "µA/cm^2"}]}]}
